T1: CynoCD40-His protein (Acro, Cat. No.: CD0-C52H6) (cynomolgus monkey, UniProt P25942 21-193 (human entry))
T1 construct: Bought protein; also called cynomolgus monkey CD40 antigen; not shown: His tag
T1 chain: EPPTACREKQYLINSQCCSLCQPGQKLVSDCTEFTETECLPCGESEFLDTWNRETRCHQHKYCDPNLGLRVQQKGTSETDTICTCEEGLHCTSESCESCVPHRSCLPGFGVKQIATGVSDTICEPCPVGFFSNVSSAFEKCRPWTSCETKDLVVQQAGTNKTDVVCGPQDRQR

B1: Chi-B03 (antibody, human IgG4 S228P, kappa, V domains shown)
VH: EVKLVESGGGLVQPGGSLRLSCATSGFTFSDFYMEWVRQPPGKRLEWIAASRDKANDYTTEYSPSVQGRFIVSRDSSQSILYLQMNALRTEDTAIYYCARDVGRSYALDYWGQGTSVTVSS
VL: QVVLTQSPAIMSASPGEKVTMTCSASSSVTYMHWYQQKSGTSPKRWIYVTSKLASGVPTRFSGSGSGTSYSLTISSMEAEDAATYYCQQWSRKPPTFGAGTKLELKR
B2: Chi-B01 (antibody, human IgG4 S228P, kappa, V domains shown)
VH: QIQLVQSGPELKKPGETVKISCKASGYTFTNYGMNWVKQAPGKGLKWMGWINPYTGEPTYADDFKGRFAFSVETSASTAYLQINNLKNEDTATYFCARKPPFDYWGQGTTLTVSS
VL: DIVMTQAAPSVPVTPGESVSISCRSSKSLLHSNGNTYLYWFLQRPGQSPQILIYRVSNLASGVPDRFSGSGSGTAFTLRISRVEAEDVGVYYCMQHVEYPFTFGSGTKLEIKR
notes: also called chimeric B01
B3: Chi-B02 (antibody, human IgG4 S228P, kappa, V domains shown)
VH: EVQLQQSGPELVKPGASVKMSCKASGYTFTSYVMYWVKQKPGQGLEWIGYVNPYNDGTNYNEKFKGKATLTSDKSSSTAYMELSSLTSEDSAVYYCARGAMDYWGQGTSVTVSS
VL: B2 VL with N33Q
B4: CP-870893 (antibody, human IgG2, kappa, V domains shown)
VH: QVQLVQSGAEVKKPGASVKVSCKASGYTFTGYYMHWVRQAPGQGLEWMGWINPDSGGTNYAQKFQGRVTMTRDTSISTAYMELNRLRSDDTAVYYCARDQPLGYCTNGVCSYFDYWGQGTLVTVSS
VL: DIQMTQSPSSVSASVGDRVTITCRASQGIYSWLAWYQQKPGKAPNLLIYTASTLQSGVPSRFSGSGSGTDFTLTISSLQPEDFATYYCQQANIFPLTFGGGTKVEIKR
B5: hzA01-3.1 (antibody, human IgG4 S228P, kappa, V domains shown)
VH: QVQLQESGPGLVKPSETLSLTCTVSGFSLPTSGVHWIRQPPGKGLEWIGVIWAGGDTNYNPSLKSRVTISKDNSKNQVFLKLSSVTAADTAVYYCLGHGHFDVWGQGTLVTVSS
VL: DVVMTQSPLSLPVTLGQPASISCRSSQSLVHSSGNTYLQWYLQRPGQSPGLLIYKVSNRFSGVPDRFSGSGSGTDFTLKISRVEAEDVGVYYCSQTTHVPWTFGQGTKLEIKR
notes: Humanized A01; also called hzA01L3 + hzA01H1
B6: hzA01-2.1 (antibody, human IgG4 S228P, kappa, V domains shown)
VH: B5 VH
VL: EIVLTQSPGTLSLSPGERATLSCRSSQSLVHSSGNTYLQWYQQKPGQAPRLLIYKVSNRFSGIPDRFSGSGSGTDFTLTISRLEPEDFAVYYCSQTTHVPWTFGQGTKVEIKR
notes: Humanized A01; also called hzA01L2 + hzA01H1
B7: hzA01-1.1 (antibody, human IgG4 S228P, kappa, V domains shown)
VH: B5 VH
VL: DIQMTQSPSSLSASVGDRVTITCRSSQSLVHSSGNTYLQWYQQKPGKAPGLLIYKVSNRFSGVPSRFSGSGSGTDFTLTISSLQPEDFATYYCSQTTHVPWTFGQGTKVEIKR
notes: Humanized A01; also called hzA01L1 + hzA01H1
B8: hzA01-1.2 (antibody, human IgG4 S228P, kappa, V domains shown)
VH: QVQLVESGGGVVQPGRSLRLSCAASGFSLPTSGVHWVRQAPGKGLEWVAVIWAGGDTNYADSVKGRFTISRDNSKNTVYLQMNSLRAEDTAVYYCLGHGHFDVWGQGTLVTVSS
VL: B7 VL
notes: Humanized A01; also called hzA01L1 + hzA01H2
B9: hzA01-2.2 (antibody, human IgG4 S228P, kappa, V domains shown)
VH: B8 VH
VL: B6 VL
notes: Humanized A01; also called hzA01L2 + hzA01H2

Where a chain is given by its changes, count along the chain named.

One assay deals with T2, human CD40 (hCD40), full length, on cells (human, UniProt P25942 21-277). Briefly: cell-based or functional assay.
For the molecule B1, the “IC50, inhibition of Ramos cell apoptosis induced by CD40L and IL-4” value (“IC50, inhibition” for short) amounted to 0.0119 nM; the “Inhibition, % of Ramos cell apoptosis at 0.0128 ng/mL” value (“Inhibition, % … at 0.0128 ng/mL” for short) is -10%; the “Inhibition, % of Ramos cell apoptosis at 0.064 ng/mL” value (“Inhibition, % … at 0.064 ng/mL” below) is -8%; the “Inhibition, % of Ramos cell apoptosis at 0.32 ng/mL” value (from here on “Inhibition, % … at 0.32 ng/mL”) stood at 16%. The “Inhibition, % of Ramos cell apoptosis at 1.6 ng/mL” value (from here on “Inhibition, % … at 1.6 ng/mL”) came out at 31%; the “Inhibition, % of Ramos cell apoptosis at 8 ng/mL” value (“Inhibition, % … at 8 ng/mL” for short) worked out at 90%; the “Inhibition, % of Ramos cell apoptosis at 40 ng/mL” value (shortened to “Inhibition, % … at 40 ng/mL”) was 90%; the “Inhibition, % of Ramos cell apoptosis at 200 ng/mL” value (“Inhibition, % … at 200 ng/mL” for short) is 84%. Besides, the “Inhibition, % of Ramos cell apoptosis at 1000 ng/mL” value (“Inhibition, % … at 1000 ng/mL” for short) came out at 70%.
As to B2, the “IC50, inhibition” value amounted to 0.0301 nM; the “Inhibition, % … at 0.0128 ng/mL” value was -24%; the “Inhibition, % … at 0.064 ng/mL” value is -33%; the “Inhibition, % … at 0.32 ng/mL” value is -12%. The “Inhibition, % … at 1.6 ng/mL” value is 2%; the “Inhibition, % … at 8 ng/mL” value was determined as 55%; the “Inhibition, % … at 40 ng/mL” value turned out to be 93%; the “Inhibition, % … at 200 ng/mL” value came to 96%. Moreover, the “Inhibition, % … at 1000 ng/mL” value came to 93%.
Take B3: the “IC50, inhibition” value turned out to be 0.0275 nM; the “Inhibition, % … at 0.0128 ng/mL” value was -18%; the “Inhibition, % … at 0.064 ng/mL” value was -16%; the “Inhibition, % … at 0.32 ng/mL” value is -5%. Further, the “Inhibition, % … at 1.6 ng/mL” value amounted to 5%; the “Inhibition, % … at 8 ng/mL” value was determined as 59%; the “Inhibition, % … at 40 ng/mL” value was found to be 92%; the “Inhibition, % … at 200 ng/mL” value worked out at 88%. The “Inhibition, % … at 1000 ng/mL” value was 75%.

In a further assay the target is T2, human CD40 (hCD40), full length, on …. Briefly: cell-based or functional assay. The source holds these as a separate data set.
On to B4, for which the “MFI value (CD95 on Ramos cells), Fc crosslinking with anti-human IgG Fcγ antibody, 1 µg/mL antibody” value is 136000 MFI and the “MFI value (CD95 on Ramos cells), Fc crosslinking with anti-human IgG Fcγ antibody, 10 µg/mL antibody” value came out at 135000 MFI.

Another assay has the same target. As to the kind of experiment: cell-based or functional assay. The source holds these as a separate data set.
Consider B5, for which the “IC50 (read off the curve); NF-κB luciferase reporter (RLU), 293T-hCD40-NFκB cells co-cultured 1:1 with CHO-K1-hCD40L cells” value was roughly 0.6 ng/mL.
On the same count and under the same terms, the value for B6 was roughly 0.6 ng/mL; that for B7 was roughly 0.3 ng/mL.

A further assay has as its target T3, hCD40-mFc (human).
T3 construct: Prepared in-house in CHO cells; also called human CD40 recombinant protein containing a mouse antibody heavy chain Fc; Human CD40-mFc
As to the kind of experiment: flow cytometry, blocking of hCD40-mFc (2 µg/mL) binding to CHO-K1-hCD40L cells. The method, then:
A CHO-K1-hCD40L cell suspension and a CHO-K1-CynoCD40L cell suspension at a cell concentration of 3×10⁵ cells/mL were separately added into a 96-well U-bottom plate at 100 μL/well. An hCD40-mFc protein at a final concentration of 2 μg/mL (prepared in-house, SEQ ID NO: 64) or a cynoCD40-mFc protein at a final concentration of 2 μg/mL (prepared in-house, SEQ ID NO: 65) was added correspondingly, before serially 2-fold diluted anti-CD40 antibodies in a final concentration range of 312.5 ng/ml-40000 ng/ml were added. The mixture was mixed well, and then incubated at 4° C. for 1 h. The cells were washed with PBS containing 2% of FBS, and then a PE-conjugated goat anti-mouse IgG (H+L) antibody (Abcam, Cat. No.: ab97041) diluted at a volume ratio of 1:500 was added, and the mixture was incubated at 4° C. for 0.5 h. The cells were washed with PBS containing 2% of […], and then resuspended in PBS containing 2% of FBS. The fluorescence signals were detected on a flow cytometer (Sartorius IQue3). The activity of anti-CD40 antibodies to block the binding of CHO-K1-hCD40L cells to an hCD40-mFc protein and CHO-K1-cynoCD40L cells to a cynoCD40-mFc protein was analyzed by the mean fluorescence intensity (MFI) of staining, and the IC₅₀ value was calculated by GraphPad Prism software.
Turning to B5, the half-maximal inhibitory concentration (IC50) was determined as 22.8 nM.

The target of a further assay is T2, human CD40 (hCD40), full length, on …. As to the kind of experiment: flow cytometry (MFI) on 293T-hCD40-NFκB cells, PE anti-human IgG detection. (In general: A flow cytometer gives signals particle by particle.)
Regarding B5, the “EC50 (read off the curve)” value was roughly 2 ng/mL.

For another assay, the target named is T4, hCD40-His protein (Acro, Cat. No.: CD0-H5228) (human, UniProt P25942 21-193).
T4 construct: Bought protein; also called human CD40 antigen; not shown: His tag
Briefly: BLI (Fortebio Octet RED96e), antibody captured on AHC sensor, antigen 1.56-100 nM, 1:1 model. The protocol: (§1) The affinity of humanized anti-CD40 antibodies to an hCD40-His protein (Acro, Cat. No.: CD0-H5228) and a CynoCD40-His protein (Acro, Cat. No.: CD0-C52H6) was detected by a ForteBio molecular interaction system. Firstly, an AHC biosensor (Fortebio, Cat. No.: 18-5060) was activated, and then immersed in an anti-CD40 antibody solution at a final concentration of 5 μg/mL to capture the antibodies. Serially 2-fold diluted hCD40-His protein and CynoCD40-His protein in a final concentration range of 1.56 nM-100 nM were then […] the AHC biosensor. The response signals were detected in real time on a Fortebio molecular interaction system (Fortebio Octet RED96e) to give association and dissociation curves. After the completion of dissociation in each cycle, the AHC biosensor was regenerated for the next capture; the procedure was repeated until the affinity of the different antibodies for CD40 was determined. The resulting data were analyzed by Fortebio Data Analysis 11.0 software using a 1:1 (Langmuir) binding model to determine the Kₐ (Kₒₙ) and Kd (Kdis) values, and the dissociation constant KD was calculated by KD=Kd/Kₐ. See www.fortebio.com for more detailed detection procedures and related information.
On the technique in general: In BLI a coated tip is dipped into the sample, and binding shifts an interference pattern.
Turning to B5, the Kd stood at 0.366 nM, the koff was determined as 0.000601 s⁻¹ and the kon is 1.64e+06 M⁻¹ s⁻¹.
The molecule B6 yielded a dissociation constant (Kd) of 1.76 nM, a koff of 0.00255 s⁻¹ and a kon of 1.45e+06 M⁻¹ s⁻¹.
For the molecule B7, the Kd came to 0.808 nM, the off-rate (koff) turned out to be 0.00101 s⁻¹ and the kon came out at 1.25e+06 M⁻¹ s⁻¹.
Regarding B2, binding was characterised by a dissociation constant (Kd) of 7.66 nM, the koff was determined as 0.00246 s⁻¹ and the kon turned out to be 321000 M⁻¹ s⁻¹.
B8 registered a Kd of 59.9 nM, a koff of 0.0484 s⁻¹ and a kon of 808000 M⁻¹ s⁻¹.
For B9 the same measures were 113 nM, 0.101 s⁻¹ and 893000 M⁻¹ s⁻¹.

For a further assay, the target named is T1, CynoCD40-His protein (Acro, Cat. No.: …). The description is as above. The protocol: as §1
In the case of B5, the Kd worked out at 0.365 nM, the koff worked out at 0.000686 s⁻¹ and the kon is 1.88e+06 M⁻¹ s⁻¹.
The corresponding values for B6 are 1.5 nM, 0.00282 s⁻¹ and 1.88e+06 M⁻¹ s⁻¹.
For B7 the same measures were 0.576 nM, 0.000923 s⁻¹ and 1.6e+06 M⁻¹ s⁻¹.

One may read the IC50 as the concentration needed to halve the response being measured. Low values mean higher potency, high ones lower potency. The EC50 (read off the curve) is the concentration at which the effect is half-maximal. Read a high EC50 (read off the curve) as lower potency in that assay. Usually Kd stands for the equilibrium constant for the complex coming apart. Lower therefore signals tighter binding. Broadly, the koff is the first-order rate constant of dissociation. Low readings indicate slow dissociation, high ones fast dissociation. A word on the kon: it is the second-order rate constant of association. Higher therefore signals faster complex formation.

For the origin of these results see US20240383994A1 (CHIA TAI TIANQING PHARMACEUTICAL GROUP, published 2024).
